Here are results for 57 substances from the supplement of paper PMC12042874.

± gives the uncertainty stated by the source.

The data set in a line: amyloid nucleation score (Sup35N fusion, yeast selection) (log enrichment); library NNK1; higher = more nucleation; inactive = no reads after selection. The method, boiled down:
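Sup35N fusions to peptides of 20 random codons were expressed in psi-negative yeast, induced 24 hours with 100 μM copper sulfate, and grown 7 days at 30°C on medium lacking adenine and uracil. Input and output plasmid inserts were sequenced by Illumina. The nucleation score is the DiMSum log enrichment of output over input reads, centred on the mode score of non-aggregating sequences. Sequences with under 100 input reads were excluded.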
IMYCLFGHLFLLRIGGFIMG had an amyloid nucleation score of 0.101 ± 0.68. In turn, LIARMWANFRRGVSITARF had an amyloid nucleation score of 0.87 ± 0.87. Next, GSIWED: -0.778 ± 0.64; SFVFGHIVKK: 2.72 ± 0.086; SALLEQRLSSGLDVAISLRI: -0.368 ± 0.9.

For AGKGLAEARTYS, the amyloid nucleation score result is “inactive”.

With CTTLGLQPFRDWRFAGKLAR, the amyloid nucleation score turned out to be 0.049 ± 1.1. As to LCIMF, the amyloid nucleation score was -0.446 ± 0.69.

On to DNFMSAGRLWSDSSADLIIT, for which the amyloid nucleation score was 0.277 ± 0.79. TSHSCHIVGAFMKKCWFSST had an amyloid nucleation score of -0.057 ± 0.65.

Consider LMFSDGWFLNGEISPWVGF, for which the amyloid nucleation score is -0.393 ± 0.71. In the case of GFIVTGNVGTFNALLERVLT, the amyloid nucleation score is 4.04 ± 0.13. SSSVCASFAVWSCCASF returned an amyloid nucleation score of 4.52 ± 0.084. With LFFQPLVLFKKRLEYCFRLL, the amyloid nucleation score was 0.2 ± 0.6.

MQFLVVLCQCQFLNRVRGCA: the amyloid nucleation score worked out at 1.5 ± 0.35.

In the case of CSRANRKGECG, the amyloid nucleation score is -0.62 ± 1.3. For the substance ALDIFTNTKSVIGYVGIGKC, the amyloid nucleation score stood at 0.194 ± 0.52. In turn, GISLSLVVERSGK came in with an amyloid nucleation score of 1.49 ± 0.21.

With RLTFVYHRMERVKKDYCS, the amyloid nucleation score entry was “inactive”.

Turning to ELSNRVRTEFVCIRTLVEDN, the amyloid nucleation score result was “inactive”. In turn, RMIDMGTDTVFCLMSFARIN came in with an amyloid nucleation score of -0.354 ± 0.22.

Turning to YLLTHQRKTSLQE, the amyloid nucleation score is 1.06 ± 0.97. Take LFRDACLGMR: the amyloid nucleation score is -0.494 ± 0.48. VLILELDGS returned an amyloid nucleation score of -1.11 ± 2.7. LYSKLSALEFMQLAIQSHLD: the amyloid nucleation score was determined as 1.96 ± 0.15.

As for FGPCMRFDCCNRGST, the amyloid nucleation score came out at 4.72 ± 0.082.

Take INQKSMMSSSDWRRWYFSGR: the amyloid nucleation score entry was “inactive”. On to ELFSAIPATIHCI, for which the amyloid nucleation score was -0.057 ± 1.1. TVIIWDENIWYFGAYAW registered an amyloid nucleation score of -1.53 ± 0.83. In turn, CPLEDLIKRLNHLYVH showed an amyloid nucleation score of 0.21 ± 0.6.

On to NSLKCVRSIVKRYSACHRV, for which the amyloid nucleation score was found to be 0.387 ± 0.5. INLYVNISRFIPCV yielded an amyloid nucleation score of 0.027 ± 0.53.

Take TNFDGYLFRFHIWRGCLVT: the amyloid nucleation score stood at 0.188 ± 1. Turning to SCVSSLYCH, the amyloid nucleation score was determined as 0.057 ± 0.65. PSGWTFSRGLSCDNVSRLSS returned an amyloid nucleation score of 1.05 ± 0.61. In the case of VASRTLLCSLGRKRVVVCGC, the amyloid nucleation score is -0.667 ± 0.29. Take LVASSFDYMMLSSVGRGYGL: the amyloid nucleation score is -0.245 ± 0.3. The result for YSRYYVNVVWFLGKLRS reads 0.012 ± 0.37. For the substance VLIKLCGYTILIRFGRFLCR, the amyloid nucleation score was -0.203 ± 0.61. Turning to CWTLSDVLFDNNLFTMNMGP, the amyloid nucleation score was -0.291 ± 0.67.

As for VMSSKDKLIWYTFL, the amyloid nucleation score turned out to be 5.199 ± 0.049. For the substance NSEISRGGVMGVCAVLLMSF, the amyloid nucleation score amounted to 0.273 ± 0.97.

CLRGLNAPLYNRCFAGILLG yielded an amyloid nucleation score of -0.6 ± 0.36. VLYGLGSWLVRNIVLSYSVV registered an amyloid nucleation score of 0.106 ± 0.24. For the substance TNMMYVYFKVI, the amyloid nucleation score result was “inactive”. VEVCRTNWLVEL gave an amyloid nucleation score of 1.09 ± 0.57. In the case of HMFIFPYGAFMMERLFSGAI, the amyloid nucleation score came out at 0.198 ± 0.97.

YSTSSEVEVDWLSVSKFVSI: the amyloid nucleation score stood at 0.146 ± 0.27. In turn, TQSGVIQDAACPAMGMSNVL had an amyloid nucleation score of 0.289 ± 0.66. WYRTRIQRRIFFNRAIYSTA came in with an amyloid nucleation score of 0.368 ± 0.85. The result for LMWSMPNGTSYGNGPVEWTG reads -0.515 ± 0.81. Next, RVIAYKANPVNTFSYPVWAE: -0.133 ± 0.44; HSGFNVAAYFTSMN: 0.467 ± 0.9; NYRISAYCDSHVRRLPEYMF: 0.175 ± 0.59. For the substance ELTYFGNI, the amyloid nucleation score turned out to be 1.5 ± 0.24. VNTVMGTMQLKLCHKLRIVG had an amyloid nucleation score of 0.19 ± 0.71.

On to FLRCRFLYQQ, for which the amyloid nucleation score was found to be 0.4 ± 0.39.
